B1: 320-257 (antibody, human IgG1, name in Kabat numbering, V domains shown)
VH: QVQLVQSGAEVKKPGASVKVSCKASGYTFTSYDINWVRQAPGQGLEWMGWLNPNSGNTGYAQKFQGRVTMTADRSTSTAYMELSSLRSEDTAVYYCAREVPETAAFEYWGQGTLVTVSS
VL: QSVLTQPPSVSGAPGQRVTISCTSSSSDIWAGLGVHWYQQLPGTAPKLLIEGYYNRPSGVPDRFSGSKSGTSASLTITGLLPEDEGDYYCQSYDGTLSALFGGGTKLTVLG
notes: human IgG1, lambda
B2: 320-279 (antibody, human IgG1, name in Kabat numbering, V domains shown)
VH: QVQLVQSGAEVKKPGASVKVSCKASGYTFTSYDINWVRQAPGQGLEWMGWLNPNSGNTGYAQKFQGRVTMTADRSTSTAYMELSSLRSEDTAVYYCAREVPETAAFEYWGQGTLVTVSS
VL: QSVLTQPPSVSGAPGQRVTISCTSSSSDIGAGDGVHWYQQLPGTAPKLLIEGYYNRPSGVPDRFSGSKSGTSASLTITGLLPEDEGDYYCQSYDGTLSALFGGGTKLTVLG
notes: human IgG1, lambda
B3: 320-260 (antibody, human IgG1, name in Kabat numbering, V domains shown)
VH: QVQLVQSGAEVKKPGASVKVSCKASGYTFTSYDINWVRQAPGQGLEWMGWLNPNSGNTGYAQKFQGRVTMTADRSTSTAYMELSSLRSEDTAVYYCAREVPETAAFEYWGQGTLVTVSS
VL: QSVLTQPPSVSGAPGQRVTISCTSSSSDIGQGLGVHWYQQLPGTAPKLLIEGYYNRPSGVPDRFSGSKSGTSASLTITGLLPEDEGDYYCQSYDGTLSALFGGGTKLTVLG
notes: human IgG1, lambda
B4: 320-261 (antibody, human IgG1, name in Kabat numbering, V domains shown)
VH: QVQLVQSGAEVKKPGASVKVSCKASGYTFTSYDINWVRQAPGQGLEWMGWLNPNSGNTGYAQKFQGRVTMTADRSTSTAYMELSSLRSEDTAVYYCAREVPETAAFEYWGQGTLVTVSS
VL: QSVLTQPPSVSGAPGQRVTISCTSSSSDIGDGLGVHWYQQLPGTAPKLLIEGYYNRPSGVPDRFSGSKSGTSASLTITGLLPEDEGDYYCQSYDGTLSALFGGGTKLTVLG
notes: human IgG1, lambda
B5: 320-281 (antibody, human IgG1, name in Kabat numbering, V domains shown)
VH: QVQLVQSGAEVKKPGASVKVSCKASGYTFTSYDINWVRQAPGQGLEWMGWLNPNSGNTGYAQKFQGRVTMTADRSTSTAYMELSSLRSEDTAVYYCAREVPETAAFEYWGQGTLVTVSS
VL: QSVLTQPPSVSGAPGQRVTISCTSSSSDIGAGKGVHWYQQLPGTAPKLLIEGYYNRPSGVPDRFSGSKSGTSASLTITGLLPEDEGDYYCQSYDGTLSALFGGGTKLTVLG
notes: human IgG1, lambda
B6: 320-264 (antibody, human IgG1, name in Kabat numbering, V domains shown)
VH: QVQLVQSGAEVKKPGASVKVSCKASGYTFTSYDINWVRQAPGQGLEWMGWLNPNSGNTGYAQKFQGRVTMTADRSTSTAYMELSSLRSEDTAVYYCAREVPETAAFEYWGQGTLVTVSS
VL: QSVLTQPPSVSGAPGQRVTISCTSSSSDIGLGLGVHWYQQLPGTAPKLLIEGYYNRPSGVPDRFSGSKSGTSASLTITGLLPEDEGDYYCQSYDGTLSALFGGGTKLTVLG
notes: human IgG1, lambda
B7: 320-282 (antibody, human IgG1, name in Kabat numbering, V domains shown)
VH: QVQLVQSGAEVKKPGASVKVSCKASGYTFTSYDINWVRQAPGQGLEWMGWLNPNSGNTGYAQKFQGRVTMTADRSTSTAYMELSSLRSEDTAVYYCAREVPETAAFEYWGQGTLVTVSS
VL: QSVLTQPPSVSGAPGQRVTISCTSSSSDIGAGWGVHWYQQLPGTAPKLLIEGYYNRPSGVPDRFSGSKSGTSASLTITGLLPEDEGDYYCQSYDGTLSALFGGGTKLTVLG
notes: human IgG1, lambda
B8: 320-271 (antibody, human IgG1, name in Kabat numbering, V domains shown)
VH: QVQLVQSGAEVKKPGASVKVSCKASGYTFTSYDINWVRQAPGQGLEWMGWLNPNSGNTGYAQKFQGRVTMTADRSTSTAYMELSSLRSEDTAVYYCAREVPETAAFEYWGQGTLVTVSS
VL: QSVLTQPPSVSGAPGQRVTISCTSSSSDIGAHLGVHWYQQLPGTAPKLLIEGYYNRPSGVPDRFSGSKSGTSASLTITGLLPEDEGDYYCQSYDGTLSALFGGGTKLTVLG
notes: human IgG1, lambda
B9: 320-259 (antibody, human IgG1, name in Kabat numbering, V domains shown)
VH: QVQLVQSGAEVKKPGASVKVSCKASGYTFTSYDINWVRQAPGQGLEWMGWLNPNSGNTGYAQKFQGRVTMTADRSTSTAYMELSSLRSEDTAVYYCAREVPETAAFEYWGQGTLVTVSS
VL: QSVLTQPPSVSGAPGQRVTISCTSSSSDIGSGLGVHWYQQLPGTAPKLLIEGYYNRPSGVPDRFSGSKSGTSASLTITGLLPEDEGDYYCQSYDGTLSALFGGGTKLTVLG
notes: human IgG1, lambda
B10: 320-262 (antibody, human IgG1, name in Kabat numbering, V domains shown)
VH: QVQLVQSGAEVKKPGASVKVSCKASGYTFTSYDINWVRQAPGQGLEWMGWLNPNSGNTGYAQKFQGRVTMTADRSTSTAYMELSSLRSEDTAVYYCAREVPETAAFEYWGQGTLVTVSS
VL: QSVLTQPPSVSGAPGQRVTISCTSSSSDIGHGLGVHWYQQLPGTAPKLLIEGYYNRPSGVPDRFSGSKSGTSASLTITGLLPEDEGDYYCQSYDGTLSALFGGGTKLTVLG
notes: human IgG1, lambda
B11: 320-275 (antibody, human IgG1, name in Kabat numbering, V domains shown)
VH: QVQLVQSGAEVKKPGASVKVSCKASGYTFTSYDINWVRQAPGQGLEWMGWLNPNSGNTGYAQKFQGRVTMTADRSTSTAYMELSSLRSEDTAVYYCAREVPETAAFEYWGQGTLVTVSS
VL: QSVLTQPPSVSGAPGQRVTISCTSSSSDIGAYLGVHWYQQLPGTAPKLLIEGYYNRPSGVPDRFSGSKSGTSASLTITGLLPEDEGDYYCQSYDGTLSALFGGGTKLTVLG
notes: human IgG1, lambda
B12: 320-276 (antibody, human IgG1, name in Kabat numbering, V domains shown)
VH: QVQLVQSGAEVKKPGASVKVSCKASGYTFTSYDINWVRQAPGQGLEWMGWLNPNSGNTGYAQKFQGRVTMTADRSTSTAYMELSSLRSEDTAVYYCAREVPETAAFEYWGQGTLVTVSS
VL: QSVLTQPPSVSGAPGQRVTISCTSSSSDIGAGAGVHWYQQLPGTAPKLLIEGYYNRPSGVPDRFSGSKSGTSASLTITGLLPEDEGDYYCQSYDGTLSALFGGGTKLTVLG
notes: human IgG1, lambda
B13: 320-268 (antibody, human IgG1, name in Kabat numbering, V domains shown)
VH: QVQLVQSGAEVKKPGASVKVSCKASGYTFTSYDINWVRQAPGQGLEWMGWLNPNSGNTGYAQKFQGRVTMTADRSTSTAYMELSSLRSEDTAVYYCAREVPETAAFEYWGQGTLVTVSS
VL: QSVLTQPPSVSGAPGQRVTISCTSSSSDIGASLGVHWYQQLPGTAPKLLIEGYYNRPSGVPDRFSGSKSGTSASLTITGLLPEDEGDYYCQSYDGTLSALFGGGTKLTVLG
notes: human IgG1, lambda
B14: 320-292 (antibody, human IgG1, name in Kabat numbering, V domains shown)
VH: QVQLVQSGAEVKKPGASVKVSCKASGYTFTSYDINWVRQAPGQGLEWMGWLNPNSGNTGYAQKFQGRVTMTADRSTSTAYMELSSLRSEDTAVYYCAREVPETAAFEYWGQGTLVTVSS
VL: QSVLTQPPSVSGAPGQRVTISCTSSSSDIGAGLYVHWYQQLPGTAPKLLIEGYYNRPSGVPDRFSGSKSGTSASLTITGLLPEDEGDYYCQSYDGTLSALFGGGTKLTVLG
notes: human IgG1, lambda
B15: 320-269 (antibody, human IgG1, name in Kabat numbering, V domains shown)
VH: QVQLVQSGAEVKKPGASVKVSCKASGYTFTSYDINWVRQAPGQGLEWMGWLNPNSGNTGYAQKFQGRVTMTADRSTSTAYMELSSLRSEDTAVYYCAREVPETAAFEYWGQGTLVTVSS
VL: QSVLTQPPSVSGAPGQRVTISCTSSSSDIGAQLGVHWYQQLPGTAPKLLIEGYYNRPSGVPDRFSGSKSGTSASLTITGLLPEDEGDYYCQSYDGTLSALFGGGTKLTVLG
notes: human IgG1, lambda
B16: 320-266 (antibody, human IgG1, name in Kabat numbering, V domains shown)
VH: QVQLVQSGAEVKKPGASVKVSCKASGYTFTSYDINWVRQAPGQGLEWMGWLNPNSGNTGYAQKFQGRVTMTADRSTSTAYMELSSLRSEDTAVYYCAREVPETAAFEYWGQGTLVTVSS
VL: QSVLTQPPSVSGAPGQRVTISCTSSSSDIGYGLGVHWYQQLPGTAPKLLIEGYYNRPSGVPDRFSGSKSGTSASLTITGLLPEDEGDYYCQSYDGTLSALFGGGTKLTVLG
notes: human IgG1, lambda
B17: 320-265 (antibody, human IgG1, name in Kabat numbering, V domains shown)
VH: QVQLVQSGAEVKKPGASVKVSCKASGYTFTSYDINWVRQAPGQGLEWMGWLNPNSGNTGYAQKFQGRVTMTADRSTSTAYMELSSLRSEDTAVYYCAREVPETAAFEYWGQGTLVTVSS
VL: QSVLTQPPSVSGAPGQRVTISCTSSSSDIGWGLGVHWYQQLPGTAPKLLIEGYYNRPSGVPDRFSGSKSGTSASLTITGLLPEDEGDYYCQSYDGTLSALFGGGTKLTVLG
notes: human IgG1, lambda

Experiments:
[1] = biological target: T1, human TL1A extracellular domain with N-terminal HIS and FLAG tag (human, UniProt O95150 72-251); assay: SPR run 3; supernatant on Protein A; TL1A 10 ug/mL; timepoint 59
T1 construct: whole entry named. ~70 kDa fraction purified by gel filtration
T1 sequence: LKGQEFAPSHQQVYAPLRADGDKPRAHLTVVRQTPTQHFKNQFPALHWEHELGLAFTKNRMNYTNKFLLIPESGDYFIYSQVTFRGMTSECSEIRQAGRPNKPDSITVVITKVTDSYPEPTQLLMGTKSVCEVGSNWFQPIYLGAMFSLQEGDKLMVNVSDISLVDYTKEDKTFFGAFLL
Text: (§1) 1.5. Antibody expression and antigen binding as determined by SPR. Using a CM5 sensor chip (GE Healthcare) Protein A (Pierce) was coupled to the chip surface using an amine coupling kit (GE Healthcare). Protein A was coupled on flow cell 1 and 2 (or alternatively 3 and 4) using a BIACORE® T200. […] The amount of supernatant or purified protein (as well as the concentration) injected during the capture stage varied between runs and is specified in the header of the Tables 3-11. At the end of injection of the supernatant or purified antibody the change in response units was measured. This value was reported as Capture Level in Tables 3-11. […] The response units were measured prior to the end of the dissociation phase. […] The sensorgrams were double referenced (flow cell 2 is subtracted from flow cell 1 and a buffer blank). As there were a large number of antibody variants to screen, these were screened across different runs (Tables 3-11). […] A summary of the conditions used in each run is below:
(§2) 2.1. […] In some experiment the antibodies were purified using Protein A chromatography (See 1.4) and purified antibodies were used in BIACORE® (GE Healthcare) experiments.

[2] = biological target: T1, human TL1A extracellular domain with …; assay: SPR run 3; supernatant on Protein A; TL1A 10 ug/mL; timepoint 590
Text: as §1, §2

Binder	TL1A Binding Level (Early) [1] [RU]	TL1A Binding Level (Late) [2] [RU]
B1	83	18
B2	144	128
B3	182	165
B4	86	29
B5	22	6
B6	199	184
B7	75	16
B8	106	30
B9	194	179
B10	209	190
B11	44	10
B12	244	215
B13	28	7
B14	111	94
B15	126	93
B16	218	192
B17	168	69
